Experimental data reported in publication PMC11261967, “The retrotransposon-derived capsid genes PNMA1 and PNMA4 maintain reproductive capacity” (Research Square, 2024).

B1: recombinant mouse PNMA1, His-tagged (natural protein, UniProt Q8C1C8 1-353, looked up)
chain: MAMTLLEDWCRGMDVNSQRALLVWGIPVNCDETEIEETLQAAMPQVSYRVLGRMFWREENAKAALLELTGAVDYSLIPREMPGKGGLWKVVFKPPTSDAVFLERLHLFLAREGWTVQDVARVLGFQNPAPAPGPEMPAEMLNYILDNVIQPLVESIWYKKLTLFSGKDIPGPGEETFDSWLEHSNEIIEEWQVSDIEKRRRLMESLRGPAADVIRILKTNNAAITTAECLKALEQVFGSVESSRDAQVRFLNTYQNPGEKLSSYVIRLEPLLQKVVDKGVIDKDNVNQARLEQVIAGANHSGALRRQLWLAGAEEGPAPNLFQLLVQIREEEAKKEEEEAEAALLQLGLEGHF
notes: PNMA1, mouse, full-length Pnma1 cloned into the first cassette of a modified pET-Duet plasmid; The modified pET-Duet encodes a C-terminal 3C protease cut site followed by the His tag; no cleavage is described; source: E. coli LOBSTR (RIL plasmid), purified (Ni-Sepharose, Superose 6 size exclusion; void fractions collected); not shown: His tag, C-terminal, kept
B2: recombinant mouse PNMA4, His-tagged (natural protein, UniProt Q9ERH6 1-352, looked up)
chain: MTLRLLEDWCRGMDMNPRKALLVAGIPPTCGVADIEEALQAGLAPLGEHRLLGRMFRRDENKNVALIGLTVETGSALVPKEIPAKGGVWRVIFKPPDTDSDFLCRLNEFLKGEGMTMGELTRVLGNRNDPLGLDPGIMIPEIRAPMLAQALNEALKPTLQYLRYKKLSVFSGRDPPGPGEEEFESWMFHTSQVMKTWQVSDVEKRRRLIESLRGPAFEIIRVLKINNPFITVAECLKTLETIFGIIDNPRALQVKYLTTYQKTDEKLSAYVLRLEPLLQKLVQKGAIEKEVVNQARLDQVIAGAVHKSVRRELGLPEGSPAPGLLQLLTLIKDKEAEEEEVLLQAELEGYCT
notes: PNMA4 (also called MOAP-1 or MAP-1), mouse, full-length Pnma4 cloned into the first cassette of a modified pET-Duet plasmid; The modified pET-Duet encodes a C-terminal 3C protease cut site followed by the His tag; no cleavage is described; also called MOAP-1; MAP-1; source: E. coli LOBSTR (RIL plasmid), purified (Ni-Sepharose, Superose 6 size exclusion; void fractions collected); not shown: His …

Biological target: the molecule itself
Assay: SEC + other: negative stain transmission electron microscopy; Ni-purified His-tagged protein run over Superose 6 Increase HiScale (80 ml); void (high molecular weight) fractions visualised by negative stain TEM (2% uranyl acetate), 2D classes in cryoSPARC; self-assembly into capsid-like particles

| Protein | binding result |
| --- | --- |
| B1 | binds |
| B2 | binds |
